Molecular target: GST-DENN-4 (C. elegans)
Experiment: pull-down

B1: HA-RAB-10(T23N) (natural protein)
chain: MARRPYDMLFKLLLIGDSGVGKNCILYRFSDDAFNTTFISTIGIDFKIKTIELKGKKIKLQIWDTAGQERFHTITTSYYRGAMGIMLVYDITNAKSFDNIAKWLRNIDEHASEDVVKMILGNKCDMSDRRVVSRERGEKIAQDHGISFHETSAKLNVHVDTAFYDLAEAILAKMPDSTDEQSRDTVNPVQPQRQSSSGGCC
  fold increase of pull-down with HA-LET-413 added, against without: 3 fold
